B1: Protein C-ets-2 (Homo sapiens), P15036 (parent)
chain: MNDFGIKNMDQVAPVANSYRGTLKRQPAFDTFDGSLFAVFPSLNEEQTLQEVPTGLDSISHDSANCELPLLTPCSKAVMSQALKATFSGFKKEQRRLGIPKNPWLWSEQQVCQWLLWATNEFSLVNVNLQRFGMNGQMLCNLGKERFLELAPDFVGDILWEHLEQMIKENQEKTEDQYEENSHLTSVPHWINSNTLGFGTEQAPYGMQTQNYPKGGLLDSMCPASTPSVLSSEQEFQMFPKSRLSSVSVTYCSVSQDFPGSNLNLLTNNSGTPKDHDSPENGADSFESSDSLLQSWNSQSSLLDVQRVPSFESFEDDCSQSLCLNKPTMSFKDYIQERSDPVEQGKPVIPAAVLAGFTGSGPIQLWQFLLELLSDKSCQSFISWTGDGWEFKLADPDEVARRWGKRKNKPKMNYEKLSRGLRYYYDKNIIHKTSGKRYVYRFVCDLQNLLGFTPEELHAILGVQPDTED
B2: Protein C-ets-1 (Homo sapiens), P14921-1 (parent)
chain: MKAAVDLKPTLTIIKTEKVDLELFPSPDMECADVPLLTPSSKEMMSQALKATFSGFTKEQQRLGIPKDPRQWTETHVRDWVMWAVNEFSLKGVDFQKFCMNGAALCALGKDCFLELAPDFVGDILWEHLEILQKEDVKPYQVNGVNPAYPESRYTSDYFISYGIEHAQCVPPSEFSEPSFITESYQTLHPISSEELLSLKYENDYPSVILRDPLQTDTLQNDYFAIKQEVVTPDNMCMGRTSRGKLGGQDSFESIESYDSCDRLTQSWSSQSSFNSLQRVPSYDSFDSEDYPAALPNHKPKGTFKDYVRDRADLNKDKPVIPAAALAGYTGSGPIQLWQFLLELLTDKSCQSFISWTGDGWEFKLSDPDEVARRWGKRKNKPKMNYEKLSRGLRYYYDKNIIHKTAGKRYVYRFVCDLQSLLGYTPEELHAMLDVKPDADE

Variants of: B1
Conditions: with cop1_human COP1, Q8NHY2
Target sequence in this assay (Q8NHY2 whole entry): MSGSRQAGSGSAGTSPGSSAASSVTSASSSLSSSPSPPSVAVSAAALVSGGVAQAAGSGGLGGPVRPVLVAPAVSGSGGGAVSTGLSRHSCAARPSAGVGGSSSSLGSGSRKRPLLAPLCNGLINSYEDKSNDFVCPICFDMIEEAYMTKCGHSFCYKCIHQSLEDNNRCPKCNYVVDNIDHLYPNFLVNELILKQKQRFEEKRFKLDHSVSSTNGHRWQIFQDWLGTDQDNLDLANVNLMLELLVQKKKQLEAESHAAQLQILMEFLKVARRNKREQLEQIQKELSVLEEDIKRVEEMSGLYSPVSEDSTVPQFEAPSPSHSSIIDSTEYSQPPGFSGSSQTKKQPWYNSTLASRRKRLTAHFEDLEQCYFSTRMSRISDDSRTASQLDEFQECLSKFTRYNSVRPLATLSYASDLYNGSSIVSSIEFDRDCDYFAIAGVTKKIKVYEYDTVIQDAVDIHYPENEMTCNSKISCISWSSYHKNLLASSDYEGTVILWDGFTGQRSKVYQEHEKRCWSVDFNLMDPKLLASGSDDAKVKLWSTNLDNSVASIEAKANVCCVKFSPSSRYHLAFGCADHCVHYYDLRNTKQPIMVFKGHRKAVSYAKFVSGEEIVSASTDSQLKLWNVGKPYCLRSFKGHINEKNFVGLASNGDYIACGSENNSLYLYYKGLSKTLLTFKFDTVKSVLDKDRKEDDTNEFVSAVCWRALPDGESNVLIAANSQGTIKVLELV

| Variant | effect of a mutation on the interaction |
| --- | --- |
| MNDFGIKNMDQVAPVANSYRGTLKRQPAFDTFDGSLFAVFPSLNEEQTLQEAATGLDSISHDSANCELPLLTPCSKAVMSQALKATFSGFKKEQRRLGIPKNPWLWSEQQVCQWLLWATNEFSLVNVNLQRFGMNGQMLCNLGKERFLELAPDFVGDILWEHLEQMIKENQEKTEDQYEENSHLTSVPHWINSNTLGFGTEQAPYGMQTQNYPKGGLLDSMCPASTPSVLSSEQEFQMFPKSRLSSVSVTYCSVSQDFPGSNLNLLTNNSGTPKDHDSPENGADSFESSDSLLQSWNSQSSLLDVQRAASFESFEDDCSQSLCLNKPTMSFKDYIQERSDPVEQGKPVIPAAVLAGFTGSGPIQLWQFLLELLSDKSCQSFISWTGDGWEFKLADPDEVARRWGKRKNKPKMNYEKLSRGLRYYYDKNIIHKTSGKRYVYRFVCDLQNLLGFTPEELHAILGVQPDTED [V52A;P53A;V308A;P309A] | disrupting interaction strength |
| MNDFGIKNMDQVAPVANSYRGTLKRQPAFDTFDGSLFAVFPSLNEEQTLQEVPTGLDSISHDSANCELPLLTPCSKAVMSQALKATFSGFKKEQRRLGIPKNPWLWSEQQVCQWLLWATNEFSLVNVNLQRFGMNGQMLCNLGKERFLELAPDFVGDILWEHLEQMIKENQEKTEDQYEENSHLTSVPHWINSNTLGFGTEQAPYGMQTQNYPKGGLLDSMCPASTPSVLSSEQEFQMFPKSRLSSVSVTYCSVSQDFPGSNLNLLTNNSGTPKDHDSPENGADSFESSDSLLQSWNSQSSLLDVQRAASFESFEDDCSQSLCLNKPTMSFKDYIQERSDPVEQGKPVIPAAVLAGFTGSGPIQLWQFLLELLSDKSCQSFISWTGDGWEFKLADPDEVARRWGKRKNKPKMNYEKLSRGLRYYYDKNIIHKTSGKRYVYRFVCDLQNLLGFTPEELHAILGVQPDTED [V308A;P309A] | decreasing interaction strength |
| MNDFGIKNMDQVAPVANSYRGTLKRQPAFDTFDGSLFAVFPSLNEEQTLQEAATGLDSISHDSANCELPLLTPCSKAVMSQALKATFSGFKKEQRRLGIPKNPWLWSEQQVCQWLLWATNEFSLVNVNLQRFGMNGQMLCNLGKERFLELAPDFVGDILWEHLEQMIKENQEKTEDQYEENSHLTSVPHWINSNTLGFGTEQAPYGMQTQNYPKGGLLDSMCPASTPSVLSSEQEFQMFPKSRLSSVSVTYCSVSQDFPGSNLNLLTNNSGTPKDHDSPENGADSFESSDSLLQSWNSQSSLLDVQRVPSFESFEDDCSQSLCLNKPTMSFKDYIQERSDPVEQGKPVIPAAVLAGFTGSGPIQLWQFLLELLSDKSCQSFISWTGDGWEFKLADPDEVARRWGKRKNKPKMNYEKLSRGLRYYYDKNIIHKTSGKRYVYRFVCDLQNLLGFTPEELHAILGVQPDTED [V52A;P53A] | decreasing interaction strength |

Variants of: B2
Conditions: with cop1_human COP1, Q8NHY2
Target sequence in this assay (Q8NHY2 whole entry): as the sequence (Q8NHY2 whole entry) above

| Variant | effect of a mutation on the interaction |
| --- | --- |
| MKAAVDLKPTLTIIKTEKVDLELFPSPDMECADVPLLTPSSKEMMSQALKATFSGFTKEQQRLGIPKDPRQWTETHVRDWVMWAVNEFSLKGVDFQKFCMNGAALCALGKDCFLELAPDFVGDILWEHLEILQKEDVKPYQVNGVNPAYPESRYTSDYFISYGIEHAQCVPPSEFSEPSFITESYQTLHPISSEELLSLKYENDYPSVILRDPLQTDTLQNDYFAIKQEVVTPDNMCMGRTSRGKLGGQDSFESIESYDSCDRLTQSWSSQSSFNSLQRVPSFDSFDSEDYPAALPNHKPKGTFKDYVRDRADLNKDKPVIPAAALAGYTGSGPIQLWQFLLELLTDKSCQSFISWTGDGWEFKLSDPDEVARRWGKRKNKPKMNYEKLSRGLRYYYDKNIIHKTAGKRYVYRFVCDLQSLLGYTPEELHAMLDVKPDADE [Y283F] | increasing interaction strength |
| MKAAVDLKPTLTIIKTEKVDLELFPSPDMECADVPLLTPSSKEMMSQALKATFSGFTKEQQRLGIPKDPRQWTETHVRDWVMWAVNEFSLKGVDFQKFCMNGAALCALGKDCFLELAPDFVGDILWEHLEILQKEDVKPYQVNGVNPAYPESRYTSDYFISYGIEHAQCVPPSEFSEPSFITESYQTLHPISSEELLSLKYENDYPSVILRDPLQTDTLQNDYFAIKQEVVTPDNMCMGRTSRGKLGGQDSFESIESYDSCDRLTQSWSSQSSFNDLQRVPSFDSFDSEDYPAALPNHKPKGTFKDYVRDRADLNKDKPVIPAAALAGYTGSGPIQLWQFLLELLTDKSCQSFISWTGDGWEFKLSDPDEVARRWGKRKNKPKMNYEKLSRGLRYYYDKNIIHKTAGKRYVYRFVCDLQSLLGYTPEELHAMLDVKPDADE [S276D;Y283F] | increasing interaction strength |
| MKAAVDLKPTLTIIKTEKVDLELFPSPDMECADVPLLTPSSKEMMSQALKATFSGFTKEQQRLGIPKDPRQWTETHVRDWVMWAVNEFSLKGVDFQKFCMNGAALCALGKDCFLELAPDFVGDILWEHLEILQKEDVKPYQVNGVNPAYPESRYTSDYFISYGIEHAQCVPPSEFSEPSFITESYQTLHPISSEELLSLKYENDYPSVILRDPLQTDTLQNDYFAIKQEVVTPDNMCMGRTSRGKLGGQDSFESIESYDSCDRLTQSWSSQSSFNSLQRVPAFDSFDSEDYPAALPNHKPKGTFKDYVRDRADLNKDKPVIPAAALAGYTGSGPIQLWQFLLELLTDKSCQSFISWTGDGWEFKLSDPDEVARRWGKRKNKPKMNYEKLSRGLRYYYDKNIIHKTAGKRYVYRFVCDLQSLLGYTPEELHAMLDVKPDADE [S282A;Y283F] | increasing interaction strength |
| MKAAVDLKPTLTIIKTEKVDLELFPSPDMECADVPLLTPSSKEMMSQALKATFSGFTKEQQRLGIPKDPRQWTETHVRDWVMWAVNEFSLKGVDFQKFCMNGAALCALGKDCFLELAPDFVGDILWEHLEILQKEDVKPYQVNGVNPAYPESRYTSDYFISYGIEHAQCVPPSEFSEPSFITESYQTLHPISSEELLSLKYENDYPSVILRDPLQTDTLQNDYFAIKQEVVTPDNMCMGRTSRGKLGGQDSFESIESYDSCDRLTQSWSSQSSFNSLQRVPDFDSFDSEDYPAALPNHKPKGTFKDYVRDRADLNKDKPVIPAAALAGYTGSGPIQLWQFLLELLTDKSCQSFISWTGDGWEFKLSDPDEVARRWGKRKNKPKMNYEKLSRGLRYYYDKNIIHKTAGKRYVYRFVCDLQSLLGYTPEELHAMLDVKPDADE [S282D;Y283F] | increasing interaction strength |
| MKAAVDLKPTLTIIKTEKVDLELFPSPDMECADVPLLTPSSKEMMSQALKATFSGFTKEQQRLGIPKDPRQWTETHVRDWVMWAVNEFSLKGVDFQKFCMNGAALCALGKDCFLELAPDFVGDILWEHLEILQKEDVKPYQVNGVNPAYPESRYTSDYFISYGIEHAQCVPPSEFSEPSFITESYQTLHPISSEELLSLKYENDYPSVILRDPLQTDTLQNDYFAIKQEVVTPDNMCMGRTSRGKLGGQDSFESIESYDSCDRLTQSWSSQSSFNALQRVPDFDSFDSEDYPAALPNHKPKGTFKDYVRDRADLNKDKPVIPAAALAGYTGSGPIQLWQFLLELLTDKSCQSFISWTGDGWEFKLSDPDEVARRWGKRKNKPKMNYEKLSRGLRYYYDKNIIHKTAGKRYVYRFVCDLQSLLGYTPEELHAMLDVKPDADE [S276A;S282D;Y283F] | increasing interaction strength |
| MKAAVDLKPTLTIIKTEKVDLELFPSPDMECADVPLLTPSSKEMMSQALKATFSGFTKEQQRLGIPKDPRQWTETHVRDWVMWAVNEFSLKGVDFQKFCMNGAALCALGKDCFLELAPDFVGDILWEHLEILQKEDVKPYQVNGVNPAYPESRYTSDYFISYGIEHAQCVPPSEFSEPSFITESYQTLHPISSEELLSLKYENDYPSVILRDPLQTDTLQNDYFAIKQEVVTPDNMCMGRTSRGKLGGQDSFESIESYDSCDRLTQSWSSQSSFNDLQRVPDFDSFDSEDYPAALPNHKPKGTFKDYVRDRADLNKDKPVIPAAALAGYTGSGPIQLWQFLLELLTDKSCQSFISWTGDGWEFKLSDPDEVARRWGKRKNKPKMNYEKLSRGLRYYYDKNIIHKTAGKRYVYRFVCDLQSLLGYTPEELHAMLDVKPDADE [S276D;S282D;Y283F] | increasing interaction strength |

Variants of: B2
Conditions: with cop1_human COP1, Q8NHY2
Remark: another data set of the same source
Target sequence in this assay (Q8NHY2 whole entry): as the sequence (Q8NHY2 whole entry) above

| Variant | effect of a mutation on the interaction |
| --- | --- |
| MKAAVDLKPTLTIIKTEKVDLELFPSPDMECADVPLLTPSSKEMMSQALKATFSGFTKEQQRLGIPKDPRQWTETHVRDWVMWAVNEFSLKGVDFQKFCMNGAALCALGKDCFLELAPDFVGDILWEHLEILQKEDVKPYQVNGVNPAYPESRYTSDYFISYGIEHAQCVPPSEFSEPSFITESYQTLHPISSEELLSLKYENDYPSVILRDPLQTDTLQNDYFAIKQEVVTPDNMCMGRTSRGKLGGQDSFESIESYDSCDRLTQSWSSQSSFNSLQRAASYDSFDSEDYPAALPNHKPKGTFKDYVRDRADLNKDKPVIPAAALAGYTGSGPIQLWQFLLELLTDKSCQSFISWTGDGWEFKLSDPDEVARRWGKRKNKPKMNYEKLSRGLRYYYDKNIIHKTAGKRYVYRFVCDLQSLLGYTPEELHAMLDVKPDADE [V280A;P281A] | disrupting interaction strength |

— IntAct's records for PubMed 25117710
